The source of these data is publication PMC8941942, “Functional and Structural Characterization of Diverse NfsB Chloramphenicol Reductase Enzymes from Human Pathogens” (Microbiology Spectrum, 2022).

The subject of series [1] is NC(=O)C1=CN([C@@H]2O[C@H](COP(=O)(O)OP(=O)(O)OC[C@H]3O[C@@H](n4cnc5c(N)ncnc54)[C@H](OP(=O)(O)O)[C@@H]3O)[C@@H](O)[C@H]2O)C=CC1. Kind of series: purified protein. The note with it: apparent, 1 mM chloramphenicol, 1 µM FMN, 50 mM Tris pH 8, ~23°C.
In series [2] the test system is O=C(N[C@H](CO)[C@H](O)c1ccc([N+](=O)[O-])cc1)C(Cl)Cl. Description: purified protein. The note with it: apparent, 1 mM NADPH, 1 µM FMN, 50 mM Tris pH 8, ~23°C.
Another series addresses T1, Ng FA1090 NfsB (Neisseria gonorrhoeae, UniProt Q5F9K5).
T1 construct: gene NGO_0388
The class given is cell-based. The conditions noted are these: 100 µg/mL chloramphenicol, MDG medium, 37°C; compared with empty vector.

T1 sequence (Q5F9K5 1-221): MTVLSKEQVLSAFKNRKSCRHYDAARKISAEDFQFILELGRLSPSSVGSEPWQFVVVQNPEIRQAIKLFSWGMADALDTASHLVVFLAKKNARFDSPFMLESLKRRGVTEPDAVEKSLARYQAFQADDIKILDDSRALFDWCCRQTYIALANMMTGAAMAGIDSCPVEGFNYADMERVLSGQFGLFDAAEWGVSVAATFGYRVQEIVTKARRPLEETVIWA

For orientation: Km means the concentration of substrate that gives half-maximal velocity. A word on the kcat: it is the maximal rate divided by the concentration of active sites. Broadly, the kcat/Km is the turnover number divided by the Michaelis constant. “Hi 86-028NP NfsB (Haemophilus influenzae 86-028NP)”: in series [1], the Km amounted to 21 ± 2 µM, the kcat stood at 9.9 ± 0.6 s⁻¹ and the kcat/Km turned out to be 478000 M⁻¹ s⁻¹. Also, in series [2], the Km turned out to be 200 ± 40 µM, the kcat was 8.7 ± 0.9 s⁻¹ and the kcat/Km stood at 44500 M⁻¹ s⁻¹.
Regarding `O=C(N[C@H](CO)[C@H](O)c1ccc([N+](=O)[O-])cc1)C(Cl)Cl` [chloramphenicol], on Ng FA1090 NfsB, the “Bratton-Marshall assay of resting E. coli expressing nfsB” value was “Es. coli strains expressing H. influenzae or Neisseria nfsB genes showed robust signal”.
With “Hi KW20 NfsB (Haemophilus influenzae Rd KW20)”, in series [1], the Km was 49 ± 6 µM, the kcat was found to be 13 ± 0.5 s⁻¹ and the kcat/Km was determined as 278000 M⁻¹ s⁻¹. Moreover, in series [2], the Km came out at 260 ± 20 µM, the kcat came out at 14 ± 0.3 s⁻¹ and the kcat/Km amounted to 55500 M⁻¹ s⁻¹.
On to “Nm Z2491 NfsB (Neisseria meningitidis Z2491)”, for which, in series [1], the Km is 22 ± 4 µM, the kcat was 8.2 ± 0.3 s⁻¹ and the kcat/Km is 388000 M⁻¹ s⁻¹. In series [2], the Km is recorded as 1,300 ± 800 μM, the turnover number (kcat) worked out at 8.9 ± 3 s⁻¹ and the kcat/Km was found to be 8120 M⁻¹ s⁻¹.
